One test deals with 3XFLAG-CDK4 R24C (human, UniProt P11802 1-303, R24C). The test can be described thus: affinity purification with mass spectrometry.
The next test concerns the target 3XFLAG-CDK4 R24H (human, UniProt P11802 1-303, R24H). Nature of the test: affinity purification with mass spectrometry.

3XFLAG-CDK4 R24H, sequence (P11802 whole entry R24H): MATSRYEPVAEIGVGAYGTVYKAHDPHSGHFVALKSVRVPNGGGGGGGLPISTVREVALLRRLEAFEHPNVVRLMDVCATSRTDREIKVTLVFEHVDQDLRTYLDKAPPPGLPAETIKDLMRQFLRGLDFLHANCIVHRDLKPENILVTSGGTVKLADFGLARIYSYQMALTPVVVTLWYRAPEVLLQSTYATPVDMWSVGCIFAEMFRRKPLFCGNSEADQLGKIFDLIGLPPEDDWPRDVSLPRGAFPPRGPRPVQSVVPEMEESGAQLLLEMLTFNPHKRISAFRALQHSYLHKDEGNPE
3XFLAG-CDK4 R24C, sequence (P11802 whole entry R24C): as the sequence (P11802 whole entry R24H) above, with H24C counted along it

B1: CDC37 co-chaperone (natural protein)
chain: MVDYSVWDHIEVSDDEDETHPNIDTASLFRWRHQARVERMEQFQKEKEELDRGCRECKRKVAECQRKLKELEVAEGGKAELERLQAEAQQLRKEERSWEQKLEEMRKKEKSMPWNVDTLSKDGFSKSMVNTKPEKTEEDSEEVREQKHKTFVEKYEKQIKHFGMLRRWDDSQKYLSDNVHLVCEETANYLVIWCIDLEVEEKCALMEQVAHQTIVMQFILELAKSLKVDPRACFRQFFTKIKTADRQYMEGFNDELEAFKERVRGRAKLRIEKAMKEYEEEERKKRLGPGGLDPVEVYESLPEELQKCFDVKDVQMLQDAISKMDPTDAKYHMQRCIDSGLWVPNSKASEAKEGEEAGPGDPLLEAVPKTGDEKDVSV
Consider B1, for which the “fold increase against CDK4 WT” value in the test with 3XFLAG-CDK4 R24C and in the test with 3XFLAG-CDK4 R24H was not below 3.9 fold in each case.

B2: HSP90AB1 (natural protein)
chain: not shown
With B2, the “fold increase against CDK4 WT” value in the test with 3XFLAG-CDK4 R24C and with 3XFLAG-CDK4 R24H was not below 3 fold in each case.

These data come from article PMC3882083 (Nature methods, 2013).
